This data set can be described thus: soluble on expression in E. coli; label from the status in PepcDB or PDB records.
Turning to “MGSDKIHHHHHHMKYEKIAFFRFFGRLNDFFRNSERIKTHRFTGFQTVKDRIEALGVPHVEVSLITLNGKPVGFDHMVEDGELFFVYPEFQNIEIPEDWLVTPRYIGEPRFVLDIHLGKLARLLRMLGFEAVFGEESDEKLCWMAVKKKAILLSRDTGLLKRKELVFGYYVRNTDPKEQLVEVVERYDLKKWMKPFTRCIECGVELEEVPKEAVKNRVPPKVYGFFNEFARCPVCGRIYWKGSHYDHMVEFIKSNINKG”, the “soluble on expression in E. coli” value is reported as “not soluble”.
The entry for “MYQIISDSACDLTELYVKKHNIEIVPLTASLDGETYLKDKTEINRKDFYTTMVENPDIFPKTSLPSVESYETVFRKYAEQNIPVVCFTISIHLSGSYNSASMAKDVVEEDYPDAKIVVLDSQQDTVSQALIIDQVVRMQNDGIPFDTMIENTKKLMGTARIFFTVGSLDYLRIGGRIGKMAISATGKLGIKPIIILKDGEVNLGGVGRNRGKLKKNLIQIADKYLTENGKDNFVVSIGYGYDAIEGVAFKDEVEAGLGVKLNGDTNVEIGVITAVHTGPHAIGIGVIQKYETLK” is “not soluble”; for “MSLNRNHPANGWPLALLLAATLALHGCNEPTAATAAPANTTRHGDYTPLTVQHKLGTTVISQLPQRTVALDMNEVDFLDQLGVPVAGMPKDFVPDFLARYKDAGQTADVGSIVQPNLERVHAARPDLILITSLQANHYDELSEMAPTLHFDVDYRDSETGHVAMVRQHLLSLGQVFGKQGLAQRKADALEAKLAQARSVTRDRPERALVVLHNNGAFSAFGVQSRYGFIFNDLGVKPATTTLDTGLHGQPISSEFIQQANPDILYVVDRTAVMEHRPMMTADTLDNPLLRQTNAWKHGRVVFVDPQAWYVTAASPTSLALIADDVIRGYQDEGHHHHHH” it is “soluble”; for “MAHHHHHHMLWVDKYRPKSLVEVELYPELTEVLKRLAESQDLPHLLLYGPSGTGKKTRAMAVLHHVYGPSVYSLRLEHRSVQVTDSKVVDIATLSSPHHIDINPSDAGNYDRVIVMQMIREIAQTVSLQSSTSNGVKYKVVLLNEVDKMGRAAQHALRRTMEKYMSTCRLVLICNSTSRLIAPLRSRCLAVRVPSHSKENLTKVIRGVCERENRPLPSPEFMATVTQRSEGNLRRALLMVEAAAMTKVDFSGNGADIPQPDWRVFLDEIANDILSEQTPKKLHEIRGKFYNLLGQCVSGELILRLVLEKLMSAVDPALRRPLVALAAQYDHNMKLGTKTIVHLEAFAAGVMQLLKQK” it is “not soluble”.
To “MMPNVAPNSYYLNIPNANSTSTTTSSIFSDLNKEYESKIKEIEEYYIKTLLNENTDNDDSSSSEGHNINETDILSEYSPRPSPWLPSKPNCYHPLGDFKDLIISDSRPTNTLPINNPFAGNNNISTLATTEKKRKKRSLEVRVNPTYTTSAFSLPLTAENLQKLSQVDSQSTGLPYTLPIQKTTKLEPCRRAPLQLPQLVNKTLYKTELCESFTIKGYCKYGNKCQFAHGLNELKFKKKSNNYRTKPCINWSKLGYCPYGKRCCFKHGDDKDVEIYQNANDGRSKDTALTPLPTSLAPSNNDNITNLSKPRNLHTSVKALQRMTW” belongs “not soluble”; to “MCTGIKIISKTNDIFYGRTMDFTFDFFGNEDPIAPKIPTLIAQFPKGTVLNSQLNPWTAKYAFMGLAMSGTDQPANDGKTVSLAITDGINEAGLSGDIQYLMESSTAPAESLADRGLTPHIAEEVLAYILSNFESVDEVKVAFEKIGLLDQKFQLDSLGEVHFTLHWTINDKNNNSIVLQPTDNGAFVIYDSIGVVTNSPEYNYHLTNARNYIGMRNYAIKEPYTLKSGATLDPIEGGTSYGLLGIPGDFTSPSRFIRALYYSDNLQEFDSSEGIMQLYRAFQTVMIPRGIGHLGQSNSLSDFTHYWSGYDVTNLTMYVQPESTTSFTKYTLDPALTEVTTFAVSNELLLTDLNQ”, “not soluble”; to “MSLSWYEEWFWSDAYTRVYDHRDDAEAEQLVDLIEHEIAPASGAHILDIGCGRGRHARALVRRGWQVTGLDLSEDAVAAARSRVADDDLDVRASFRVGDMRTPVCDGCADGVVNLFTSFGYFDADAENERALAAMATALRPGGWFLQDFLNAPQVAESLGASVYETEDGRTIHQDRWIEDGRVNKKITVRQNGHTETFQESVRLYTRSDLTAMYERVGLEVVALFGDYDGGNYVPDESPRLLLHAVRPTEGHHHHHH”, “soluble”.
Regarding “MVLLKEYRVILPVSVDEYQVGQLYSVAEASKNETGGGEGVEVLVNEPYEKDDGEKGQYTHKIYHLQSKVPTFVRMLAPEGALNIHEKAWNAYPYCRTVITNEYMKEDFLIKIETWHKPDLGTQENVHKLEPEAWKHVEAIYIDIADRSQVLSKDYKAEEDPAKFKSIKTGRGPLGPNWKQELVNQKDCPYMCAYKLVTVKFKWWGLQNKVENFIHKQEKRLFTNFHRQLFCWLDKWVDLTMDDIRRMEEETKRQLDEMRQKDPVKGMTADD”, the “soluble on expression in E. coli” value is “soluble”.
As to “MSRFLISSFILIAFVLQFGEGSIAVQEVKDGEKVQIELFKGAKAIQRSVDAGEQIFHFEGENKGVFVDANGKAIDSSNYEENNGHLVIKKFTKADVGSYSEYPTKIIKTKTDHGFSGVAAPVLKLSLQ”, the “soluble on expression in E. coli” value is “soluble”.
As for “MSVATATMPQQQNNFAQTLSQSSSTASAPAPTSAPVTTPAPGSRGAALFGGVFHRGFFSKPVERTEEENYRYLMALDR”, the “soluble on expression in E. coli” value is listed as “not soluble”.
Take “MLSMPWSEIDTVLLDMDGTLLDLHYDEHFWMQHLPQRYAELHGISFAMAWLELKPLFENNAGTLNWYCLDFWSTELKLSVRDLKREIAHMIALRPDAETFLAAIKQAGKRVIMITNAHRDSLSLKMERIELAPYFERLISSHDYGFPKESQHFWDALKAETAFDPARSLFIDDTLPILRSARHFGVAHLLAVSQPNSQKGPKDTEEFAAVGDYRELIKGL”: the “soluble on expression in E. coli” value is on record as “not soluble”.
To “MSLDCSIKMLKDVPVKMRDGITIYTDIYLPITEEKVPTLIAWSPYGKSAGTAPRYKNLFNMLGMGNAWNSGLTKFEAPDPAYWCAHGYAVCNPDMRGIAHSEGNTTMIGSQEAEDGYDLIEWLAKQSWSNGKTALTGTSYLAFSQWYIAAEQPPHLTCINPTEGLADGYRDLAFIGGIPDPNFIERLQINHVSAKNSQREDLTKEMEAYPLADSAIWKDKVADPSKITIPAFVIASYSNTLHTMGTFRSWRSLGSKEKWLRIHDRQEWPYYYDENNVEELRRFFDYYLLGKENNWTDTPTVRYALIDFQGGNQTDLPSEVFPPTNSENKRYYMNGLLRTLQETPTSDDFKVSYTTENLPGRASFQMTFDKETHFVGYPKAKLFMEVDGYDDLDVFVWLQKLDKFGNVLSEFVVPNHGAALQDFTQEGASALRYKGAWGRLRASMRQLDSQVSTDEIPAYSFDKVEKLSSGEIVELDIILSPIGLTYKAGETLRVVVSSKDELGSVMPGTPGCTPNNKGMHILHTSKEHPSYIQLPIINKEGHHHHHH” belongs “soluble”.
The entry for “MGSDKIHHHHHHMKKASTLPLFERLVQHDRGGPISCHVPGHKQGALFHKDACSYFQSILSLDVTELTGLDDLHDPRGVIAEAQALTARYVGAEATCFLVNGSTVGNLAMILGTLEPGDTVFVQRDSHKSVMNGLAMARVHPIFLSPSYDERTQLPTGITEQTLKQALIEHPNGKALILTYPSYYGVARSIRPLVQMAKEAGLYVLVDEAHGAHFPVGDPFPKQALEQGADVVVQSAHKTLPALTMGSYLHFAHGLHSKIKDSIREQLQILQSSSPSYPILASLDAARGFLEDLTNVKDTLDSIAEMNRRIEQVERLSVATFSPLPTDPLKTVITVEGATGFALQTELEKEGIYSELADDRHVLLMWGLTPLQKVRQEEIIDKMCRATKRLPALEQISKGCPLSLSWQAHTSLDLSYDEQKRYSIEEVAVEEAVGKVSGATVIPYPPGVPLLLKGEKITEPLIAQFQQLQEAGARFQGRPSEQQGLYVFTLEAMT” is “not soluble”.
Consider “MAHHHHHHMKFIPLDSFSALNSLLQGVEAQGCCITMRLEAYTCRHTKEERQIANSIACYQNNVQLTPPISPLPTIGAYAGCTQEALPPLVLGGSAENVAASYSLVSPNEIDDRLVYFVAALNTVYESDGYDFSVLRENDFVRYTEPQFRTEVSSTLQSLPEQCRPAVQRFWPTIEEVVENAESGCEYYEFRCPSCNPLADTTVYARHYFVYNRRKKVLVLLVEYGESNPYRGDDGLPHAGDPTSAWDAESPTYASTPDLGEEGEAYDGGKNRQFYGYY”, for which the “soluble on expression in E. coli” value was “soluble”.
To “PQEVESYVHRIGRTGRAGKEGTAITFITPQEYRRLLQIQKAVKKEIKKEKLPDVKDVIQAKKFRIIDDIGQILIDNDYDKFKKLAKDLLKMEDAENIVASLLKLSYSDVLDESNYNEISPVKMEDTGKTRLFIAMGRKDGMTPK” belongs “not soluble”; to “MANCENNPWKKNAWGKNEETAEEPIVSFADVLSEEFIEDLSVQEKLEEERYMKQLDQMFGDTSVSDDQLPINTEGMTDEEVALALQRHFDREADVARAVGSSSSVHFTPDRYHPKTMQETDSENEDDDALRQAATDMLYAKLDEENATNSRLRPEGPSTSRTKHDTGVSGRRNADKTFNDRNTLPTGDMVGDKLNNKVFNKLMAFGKSESKRQMRNKDKEEKATMDTSVDSDTRLLLLKWINQGVFDSVDGIIATGKESAVLHAAQDSATSYAIKVYKTTLSEFKNRSEYVKDDFRFKNPRGVLKIWAEREFMNLSRMAKHGLPCPQPVKVRRNVLVMSFLGDQGLAAPRLKNVEWEFFTDDERRNVYDQVQSIMCRMYKECLLVHADLSEFNLLLTPDNKVHVIDVSQAMDLSHPRSLQFLTRDIQNIITFFTRIGTPNLPTYVQLFNLITDLDMVEDHDLLVQVEQFSEENRSVDLRHDKSRPADMELKKYNEEKKANRGISPAREYN”, “not soluble”.
The entry for “MSLTTETRSLYSQLPAIDRLLRDSSFLSLRDTYGHTRVVELLRQMLDEAREVIRGSQTLPAWCENWAQEVDARLTKEAQSALRPVINLTGTVLHTNLGRALQAEAAVEAVAQAMRSPVTLEYDLDDAGRGHRDRALAQLLCRITGAEDACIVNNNAAAVLLMLAATASGKEVVVSRGELVEIGGAFRIPDVMRQAGCTLHEVGTTNRTHANDYRQAVNENTALLMKVHTSNYSIQGFTKAIDEAELVALGKELDVPVVTDLGSGSLVDLSQYGLPKEPMPQELIAAGVSLVSFSGDKLLGGPQAGIIVGKKEMIARLQSHPLKRALRADKMTLAALEATLRLYLHPEALSEKLPTLRLLTRSAEVIQIQAQRLQAPLAAHYGAEFAVQVMPCLSQIGSGSLPVDRLPSAALTFTPHDGRGSHLESLAARWRELPVPVIGRIYDGRLWLDLRCLEDEQRFLEMLLKEGGSHHHHHH” is “soluble”.
The entry for “MGDVSAVSSSGNILLPQQDEVGGLSEALKKAVEKHKTEYSGDKKDRDYGDAFVMHKETALPLLLAAWRHGAPAKSEHHNGNVSGLHHNGKSELRIAEKLLKVTAEKSVGLISAEAKVDKSAALLSSKNRPLESVSGKKLSADLKAVESVSEVTDNATGISDDNIKALPGDNKAIAGEGVRKEGAPLARDVAPARMAAANTGKPEDKDHKKVKDVSQLPLQPTTIADLSQLTGGDEKMPLAAQSKPMMTIFPTADGVKGEDSSLTYRFQRWGNDYSVNIQARQAGEFSLIPSNTQVEHRLHDQWQNGNPQRWHLTRDDQQNPQQQQHRQQSGEEDDA” is “not soluble”; for “MTVEEYQQTVAQWLEVAKDPHFNKAYTELTYKPMREMVTYLQDHDFKVYIVSGGGVDFMRTWAPEVYGIPEEQIIGSALKYKYDYNNSNPTVTKLGEILTIDDKAGKVENIQHIIGKKPVLAIGNSDGDHAMMQWATSQPNSMAMIVHHTDEAREWKYDR” it is “not soluble”; for “MAHHHHHHMHDIYLDNPSTFEILEKMFSLYVNTYPDNELPIGFILMGDFISLKFDYNKNFNDLYIKGFEKLSVLLISKFKLILQNCYLIFIPGKNDPCACKNSIPKMPILPYYIKKFEQNIQSFFSCKKKIIFATNPCRIRHFNKKMIFFRQDILNDLIWSSSINATDDNKNNLQDILISTIVGQSHIYPIPHDNRILKRYSSFLFLYPLPNFICISDNTCNSFISYASDNTSDSIISNSDLSFTKKKTFTVYNVLQHDAKRYVVPI” it is “not soluble”.
